We go through one molecule from patent publication US20230416343A1 (SORRENTO THERAPEUTICS, published 2023).

Experiment [1] has as its target SARS-CoV-2 spike protein expressed on HEK293 cells (SARS-CoV-2, UniProt P0DTC2 14-1273).
In experiment [2] the target is T1, SARS-CoV-2 D614G mutant spike protein expressed on HEK293 cells (SARS-CoV-2, UniProt P0DTC2 14-1273).
The target of experiment [3] is SARS-CoV-2 variant spike protein E484K on HEK293 cells (SARS-CoV-2, UniProt P0DTC2 14-1273).
Experiment [4] concerns the target SARS-CoV-2 variant spike protein F490S on HEK293 cells (SARS-CoV-2, UniProt P0DTC2 14-1273).
For experiment [5], the target named is SARS-CoV-2 variant spike protein S494P on HEK293 cells (SARS-CoV-2, UniProt P0DTC2 14-1273).
Experiment [6] addresses SARS-CoV-2 variant spike protein triple mutant K417N, E484K, and N501Y on HEK293 cells (SARS-CoV-2, UniProt P0DTC2 14-1273).
For experiment [7], the target named is T1, SARS-CoV-2 D614G mutant spike protein …. The source holds these as a separate data set.
For experiment [8], the target named is S protein of live SARS-CoV-2 strain 2020001 (spike protein having the D614G mutation) (SARS-CoV-2, UniProt P0DTC2 14-1273). In words: cell-based or functional assay.
The target in experiment [9] is S protein of live SARS-CoV-2 Alpha variant virus (SARS-CoV-2, UniProt P0DTC2 14-1273). Description: cell-based or functional assay.

Values joined by “and” are separate entries in the source; they are usually repeats but may differ in a detail not shown here. Identical values can stand only once. Like-named read-outs stand apart in the source and are kept apart here.

B1: S1D7270LALA antibody (STI-2020) (antibody, V domains shown)
VH: EVQLVESGGGLIQPGGSLRLSCAASGFTVSSNYMSWVRQAPGKGLEWVSIIYPGGSTEYADSVKGRFTISRDNSRNTLYLQMNSLRAEDTAVYYCARELGYYGMDVWGQGTTVTVSS
VL: DIQMTQSPSSVSASVGDRVTITCRASQGISTWLVWYQQKPGKAPNLLIYGASSLQSGVPSRFSGSGSGTDFTLTISSLQPEDFATYYCQQANAYPYTFGQGTKLEIK
B1: the 50% effective concentration (EC50) in experiment [1] is 0.12 µg/mL; in experiment [2], 0.13 µg/mL; in [3] it was 140 µg/mL; in experiment [4] it was 48 µg/mL; in [5], 131 µg/mL; in [6], above 10000 µg/mL. Further, the midpoint of the response in experiment [7], the EC50, lay at 130 µg/mL. In addition, the “IC50, inhibition of cytopathic effect (CPE) on Vero E6 cells, live virus” value in [8] was found to be 0.055 µg/mL. The “IC50, plaque reduction neutralization test on Vero E6 cells, live virus” value in experiment [9] was 9.08 ng/mL and 16.4 ng/mL.
